Key:
[1] = molecular target: T1, human OX40 receptor (BioLegend Inc, Cat #780804) (human, UniProt P43489 29-214); experiment: ELISA: 1x10^6 BC-PIV particles coated per well, receptor added at 1, 10, 50, 100 ng, HRP-Protein A, absorbance at 450 nm
T1 construct: Bought reagent; No Fc tag is stated for this one, but detection was by HRP-Protein A 'adsorbed on the human Fc region', so a human Fc tag is likely; also called human OX40 receptor protein
T1 sequence: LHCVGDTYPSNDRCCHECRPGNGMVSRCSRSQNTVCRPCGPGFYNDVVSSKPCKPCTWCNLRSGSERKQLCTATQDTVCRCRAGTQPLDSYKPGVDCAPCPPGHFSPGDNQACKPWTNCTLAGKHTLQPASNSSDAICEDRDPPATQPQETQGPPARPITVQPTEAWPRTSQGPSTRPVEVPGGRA

[2] = molecular target: T2, mouse 4-1BBL incorporated into the envelope of BC-PIV particles (mouse, UniProt P41274 1-309, Membrane-anchored type II protein on the BC-PIV envelope; paragraph 280 expects trimers that associate into higher multimers; one protomer is given.); experiment: ELISA: 1x10^6 BC-PIV particles coated per well, receptor-Fc added at 1, 10, 50, 100 ng, HRP-Protein A, absorbance at 450 nm
T2 construct: Whole membrane protein on virus particles coated on the ELISA plate; also called mouse 4-1BBL-carrying BC-PIV; BC-PIV/4-1BBL
T2 sequence: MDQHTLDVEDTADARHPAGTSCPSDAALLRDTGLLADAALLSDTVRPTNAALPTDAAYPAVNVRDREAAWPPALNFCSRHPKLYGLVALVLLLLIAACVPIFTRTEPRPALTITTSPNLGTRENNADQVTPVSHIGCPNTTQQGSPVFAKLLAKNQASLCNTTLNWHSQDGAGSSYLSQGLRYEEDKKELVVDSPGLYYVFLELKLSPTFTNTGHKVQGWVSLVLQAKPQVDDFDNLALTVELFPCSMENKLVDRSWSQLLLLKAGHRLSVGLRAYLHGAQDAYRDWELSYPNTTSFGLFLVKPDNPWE

[3] = molecular target: T3, mouse OX40L incorporated into the envelope of BC-PIV particles (mouse, UniProt P43488 1-198, Membrane-anchored type II protein on the BC-PIV envelope, expected as a homotrimer; one protomer is given.); experiment: as above
T3 construct: Whole membrane protein on virus particles coated on the ELISA plate (1x10^6 particles per well); The form 'whole, on cells' is the nearest choice; the carrier is a virus envelope; also called mouse OX40L-carrying BC-PIV; BC-PIV/OX40L
T3 sequence: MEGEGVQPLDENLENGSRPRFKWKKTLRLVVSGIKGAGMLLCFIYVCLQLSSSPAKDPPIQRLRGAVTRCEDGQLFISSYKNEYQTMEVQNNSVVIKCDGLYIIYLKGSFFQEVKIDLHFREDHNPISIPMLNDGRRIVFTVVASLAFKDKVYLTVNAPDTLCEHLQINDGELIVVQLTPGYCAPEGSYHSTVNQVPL

B1: human OX40L incorporated into the envelope of BC-PIV particles (ligand)
chain: MERVQPLEENVGNAARPRFERNKLLLVASVIQGLGLLLCFTYICLHFSALQVSHRYPRIQSIKVQFTEYKKEKGFILTSQKEDEIMKVQNNSVIINCDGFYLISLKGYFSQEVNISLHYQKDEEPLFQLKKVRSVNSLMVASLTYKDKVYLNVTTDNTSLDDFHVNGGELILIHQNPGEFCVL
modifications: Membrane-anchored type II protein on the BC-PIV envelope, expected as a homotrimer; one protomer is given.
notes: Whole membrane protein on virus particles coated on the ELISA plate; also called human OX40L-carrying BC-PIV
B1: binds [1].

B2: mouse 4-1BB receptor (C-terminal human IgG Fc Tag; BioLegend Inc, Cat #756704) (Fc fusion)
chain: VQNSCDNCQPGTFCRKYNPVCKSCPPSTFSSIGGQPNCNICRVCAGYFRFKKFCSSTHNAECECIEGFHCLGPQCTRCEKDCRPGQELTKQGCKTCSLGTFNDQNGTGVCRPWTNCSLDGRSVLKTGTTEKDVVCGPPVVSFSPSTTISVTPEGGPGGHSLQVL
notes: Bought reagent; also called mouse 4-1BB receptor protein; not shown: C-terminal human IgG Fc tag
B2: binds [2].

B3: trimeric mouse OX40 receptor (C-terminal human IgG Fc Tag; BioLegend Inc, Cat #78904) (Fc fusion)
chain: VTARRLNCVKHTYPSGHKCCRECQPGHGMVSRCDHTRDTLCHPCETGFYNEAVNYDTCKQCTQCNHRSGSELKQNCTPTQDTVCRCRPGTQPRQDSGYKLGVDCVPCPPGHFSPGNNQACKPWTNCTLSGKQTRHPASDSLDAVCEDRSLLATLLWETQRPTFRPTTVQSTTVWPRTSELPSPPTLVTPEGP
notes: Bought reagent, called 'trimeric'; not shown: C-terminal human IgG Fc tag
B3: binds [3].

From patent US20210379129A1 (BIOCOMO INCORPORATION, published 2021)
